This note sets out measurements from patent US9260500B2, “Peptide and use thereof” (Takeda Pharmaceutical Company Limited, priority 2009, dated 2016).

Non-standard residues stand in square brackets, D forms with d. tBuAla = CC(C)(C)C[C@H](N)C(=O)O; 4Pal = N[C@@H](Cc1ccncc1)C(=O)O; dHyp = O=C(O)[C@H]1C[C@H](O)CN1; Cha = N[C@@H](CC1CCCCC1)C(=O)O; Iva = CC[C@](C)(N)C(=O)O; Aib = CC(C)(N)C(=O)O

In test [1] the target is T1, human Y2 receptor (Homo sapiens, UniProt P49146).
T1 construct: expressed in transfected cells; membrane fraction
T1 sequence (P49146 1-381): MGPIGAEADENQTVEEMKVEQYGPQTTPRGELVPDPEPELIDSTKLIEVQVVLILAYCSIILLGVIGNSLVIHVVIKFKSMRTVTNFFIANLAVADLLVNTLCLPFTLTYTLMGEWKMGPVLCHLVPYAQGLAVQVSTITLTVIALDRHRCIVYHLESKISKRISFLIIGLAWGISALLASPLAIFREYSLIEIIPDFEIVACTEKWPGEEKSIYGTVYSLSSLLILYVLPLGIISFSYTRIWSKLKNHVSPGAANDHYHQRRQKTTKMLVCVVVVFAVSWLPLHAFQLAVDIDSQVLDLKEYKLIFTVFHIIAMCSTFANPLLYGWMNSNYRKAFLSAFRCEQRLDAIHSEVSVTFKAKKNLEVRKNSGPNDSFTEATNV
Briefly: Receptor Binding Assay (RBA) for Human Y2, [125I]-PYY displacement on hY2R/CHO membrane fraction. The conditions noted are these: IC50 of test compound/IC50 of PYY(3-36) (PYY(3-36) taken as 1). In short, it runs like this:
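Read-out is [125I]-PYY displacement from membranes of CHO/dhfr− cells stably transfected with human Y2R. Membranes were obtained by disrupting cells in a buffer of 10 mM NaHCO3, 5 mM EDTA and protease inhibitors.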

The target in test [2] is T1, human Y2 receptor. The experiment in a line: Human Y2 Receptor G Protein Binding Assay (GBA), [35S]GTPγS. It is filed as biochemical. The conditions noted are these: EC50 of test compound/EC50 of PYY(3-36) (PYY3-36 taken as 1), hY2R/CHO membrane fraction. An outline of the steps: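 Agonism measured as [35S]GTPγS binding, read by GF/C filtration and scintillation counting after 120 min at room temperature, using human Y2 membranes at 1 μg protein/mL in pH 7.4 Tris/MgCl2/NaCl/GDP buffer. Compound serially diluted 100 μM–1 nM; EC50 normalized to PYY(3-36) (ratio = compound/PYY).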
A general note: Binding of GTPγS marks nucleotide exchange on a G protein.

For test [3], the system named is male C57EL/6J mice. The experiment in a line: 3-Days Continuous Subcutaneous Administration Test-1 (food intake suppressing activity). The settings on record: 0.03 mg/kg/day, subcutaneous Alzet pump, food consumption over 3 days; relative to food intake suppression rate for PYY(3-36) (1 mg/kg/day) taken as 100%. It is filed as in vivo, mouse. In short, it runs like this: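 Male […] mice, 12-13 weeks, received compound at 0.03 mg/kg/day by subcutaneous osmotic pump (50% DMSO vehicle), housed singly with free food access. Food consumed over 3 days measured; suppression expressed relative to PYY(3-36) (1 mg/kg/day) set as 100%.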

Turning to “Ac-[Glu23, D-Hyp24, Cha27,28,36, Lys30, Aib31]-PYY(23-36) (Ac-E[dHyp]RH[Cha][Cha]NK[Aib]TRQR[Cha]-NH2; SMILES CC(=O)N[C@@H](CCC(=O)O)C(=O)N1C[C@@H](O)C[C@@H]1C(=O)N[C@@H](CCCNC(=N)N)C(=O)N[C@@H](Cc1c[nH]cn1)C(=O)N[C@@H](CC1CCCCC1)C(=O)N[C@@H](CC1CCCCC1)C(=O)N[C@@H](CC(N)=O)C(=O)N[C@@H](CCCCN)C(=O)NC(C)(C)C(=O)N[C@H](C(=O)N[C@@H](CCCNC(=N)N)C(=O)N[C@@H](CCC(N)=O)C(=O)N[C@@H](CCCNC(=N)N)C(=O)N[C@@H](CC1CCCCC1)C(N)=O)[C@@H](C)O) [compound No. 204]”, in test [1], the “RBA IC50 Ratio” value stood at 0.8. In addition, the “GBA EC50 Ratio” value in test [2] is given as 1.3. Moreover, the “food intake suppression rate (%)” value in test [3] came to 16%.
The matching figures for “Ac-[Glu23, D-Hyp24, Iva25, Pya(4)26, Cha27,36, Leu(Me)28, Lys30, Aib31]-PYY(23-36) (Ac-E[dHyp][Iva][4Pal][Cha][tBuAla]NK[Aib]TRQR[Cha]-NH2; SMILES CC[C@](C)(NC(=O)[C@H]1C[C@H](O)CN1C(=O)[C@H](CCC(=O)O)NC(C)=O)C(=O)N[C@@H](Cc1ccncc1)C(=O)N[C@@H](CC1CCCCC1)C(=O)N[C@@H](CC(C)(C)C)C(=O)N[C@@H](CC(N)=O)C(=O)N[C@@H](CCCCN)C(=O)NC(C)(C)C(=O)N[C@H](C(=O)N[C@@H](CCCNC(=N)N)C(=O)N[C@@H](CCC(N)=O)C(=O)N[C@@H](CCCNC(=N)N)C(=O)N[C@@H](CC1CCCCC1)C(N)=O)[C@@H](C)O) [compound No. 351]”: 1.2, 1.9 and 27%.
The matching figures for “Ac-[Glu23, D-Pro24, Iva25, Pya(4)26, Cha27,36, Aib28,31, Lys30]-PYY(23-36) (Ac-E[dP][Iva][4Pal][Cha][Aib]NK[Aib]TRQR[Cha]-NH2; SMILES CC[C@](C)(NC(=O)[C@H]1CCCN1C(=O)[C@H](CCC(=O)O)NC(C)=O)C(=O)N[C@@H](Cc1ccncc1)C(=O)N[C@@H](CC1CCCCC1)C(=O)NC(C)(C)C(=O)N[C@@H](CC(N)=O)C(=O)N[C@@H](CCCCN)C(=O)NC(C)(C)C(=O)N[C@H](C(=O)N[C@@H](CCCNC(=N)N)C(=O)N[C@@H](CCC(N)=O)C(=O)N[C@@H](CCCNC(=N)N)C(=O)N[C@@H](CC1CCCCC1)C(N)=O)[C@@H](C)O) [compound No. 322]”: 6.1, 2.8 and 31%.
As for “Ac-[Glu23, D-Pro24, Pya(4)26, Cha27,36, Leu(Me)28, Lys30, Aib31]-PYY(23-36) (Ac-E[dP]R[4Pal][Cha][tBuAla]NK[Aib]TRQR[Cha]-NH2; SMILES CC(=O)N[C@@H](CCC(=O)O)C(=O)N1CCC[C@@H]1C(=O)N[C@@H](CCCNC(=N)N)C(=O)N[C@@H](Cc1ccncc1)C(=O)N[C@@H](CC1CCCCC1)C(=O)N[C@@H](CC(C)(C)C)C(=O)N[C@@H](CC(N)=O)C(=O)N[C@@H](CCCCN)C(=O)NC(C)(C)C(=O)N[C@H](C(=O)N[C@@H](CCCNC(=N)N)C(=O)N[C@@H](CCC(N)=O)C(=O)N[C@@H](CCCNC(=N)N)C(=O)N[C@@H](CC1CCCCC1)C(N)=O)[C@@H](C)O) [compound No. 169]”, in test [1], the “RBA IC50 Ratio” value is on record as 0.48. Moreover, in test [2], the “GBA EC50 Ratio” value was 0.86. Moreover, the “food intake suppression rate (%)” value in test [3] came out at 55%.
The matching figures for “Ac-[Iva24, Pya(4)26, Cha27,36, Aib28,31, Lys30]-PYY(23-36) (Ac-S[Iva]R[4Pal][Cha][Aib]NK[Aib]TRQR[Cha]-NH2; SMILES CC[C@](C)(NC(=O)[C@H](CO)NC(C)=O)C(=O)N[C@@H](CCCNC(=N)N)C(=O)N[C@@H](Cc1ccncc1)C(=O)N[C@@H](CC1CCCCC1)C(=O)NC(C)(C)C(=O)N[C@@H](CC(N)=O)C(=O)N[C@@H](CCCCN)C(=O)NC(C)(C)C(=O)N[C@H](C(=O)N[C@@H](CCCNC(=N)N)C(=O)N[C@@H](CCC(N)=O)C(=O)N[C@@H](CCCNC(=N)N)C(=O)N[C@@H](CC1CCCCC1)C(N)=O)[C@@H](C)O) [compound No. 241]”: 0.58, 0.91 and 16%.
